Measurements published in patent publication US20220125940A1 (Novo Nordisk, published 2022).
Starred links: 1 amine or outer side, 2 acyl side, 3 side chain; linkers in the order of their positions; H or OH if unused. Non-standard residues stand in square brackets, D forms with d. Groups on a side chain read outwards from the residue. No end group written: not given here. *: point of attachment. C18 diacid = O=C(O)CCCCCCCCCCCCCCCCC(=O)*; γGlu = O=C(O)[C@H](CCC(=O)[*:2])N[*:1]; εLys = N[C@@H](CCCCN[*:1])C(=O)[*:2]; AEEA = NCCOCCOCC(=O)O; Aib = CC(C)(N)C(=O)O

Columns and labels:
human GIP receptor = target: T1, human GIP receptor (human, UniProt P48546 22-466); assay: cell-based or functional assay
T1 sequence (looked up): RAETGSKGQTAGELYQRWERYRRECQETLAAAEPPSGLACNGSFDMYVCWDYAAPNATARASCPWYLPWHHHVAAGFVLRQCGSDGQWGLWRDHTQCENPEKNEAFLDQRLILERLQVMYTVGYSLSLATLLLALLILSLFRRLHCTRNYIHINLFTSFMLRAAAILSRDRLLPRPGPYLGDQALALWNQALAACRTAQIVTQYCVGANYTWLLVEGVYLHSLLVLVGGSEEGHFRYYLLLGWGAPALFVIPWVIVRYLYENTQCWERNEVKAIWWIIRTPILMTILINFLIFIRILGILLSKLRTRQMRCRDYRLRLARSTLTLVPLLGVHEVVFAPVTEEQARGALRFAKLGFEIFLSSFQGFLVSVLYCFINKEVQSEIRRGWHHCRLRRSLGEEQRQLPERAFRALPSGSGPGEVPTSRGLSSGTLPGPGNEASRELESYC

human GLP-1 receptor = human GLP-1 receptor (human, UniProt P43220 24-463); assay: cell-based or functional assay
Sequence of human GLP-1 receptor (P43220 24-463): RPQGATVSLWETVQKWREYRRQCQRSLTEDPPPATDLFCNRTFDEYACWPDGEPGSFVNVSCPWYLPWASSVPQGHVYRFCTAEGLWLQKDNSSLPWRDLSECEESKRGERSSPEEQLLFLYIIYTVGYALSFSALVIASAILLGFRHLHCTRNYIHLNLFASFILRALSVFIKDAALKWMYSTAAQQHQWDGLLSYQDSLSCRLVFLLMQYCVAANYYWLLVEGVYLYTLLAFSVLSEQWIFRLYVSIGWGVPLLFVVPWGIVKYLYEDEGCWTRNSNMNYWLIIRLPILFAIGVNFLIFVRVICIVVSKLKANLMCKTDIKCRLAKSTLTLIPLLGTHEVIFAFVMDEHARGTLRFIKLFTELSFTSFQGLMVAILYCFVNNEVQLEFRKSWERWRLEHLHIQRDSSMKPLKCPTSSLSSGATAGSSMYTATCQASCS

## human GIP (from UniProt P09681 52-93) (ligand)
Human GIP receptor
  hGIPR, CRE Luc 0% HSA EC50 (pM): 11.3 pM
  hGIPR, CRE Luc 1% HSA EC50 (pM): 6.4 pM

B1: Compound No. 19 (peptide)
peptide: Y[Aib]EGTFTSDYSILLEK([εLys-εLys-γGlu-C18 diacid])QAAREFINWLLAGGP-OH
modifications: N-terminus assumed
SMILES: CC[C@H](C)[C@H](NC(=O)[C@H](Cc1ccccc1)NC(=O)[C@H](CCC(=O)O)NC(=O)[C@H](CCCNC(=N)N)NC(=O)[C@H](C)NC(=O)[C@H](C)NC(=O)[C@H](CCC(N)=O)NC(=O)[C@H](CCCCNC(=O)[C@@H](N)CCCCNC(=O)[C@@H](N)CCCCNC(=O)CC[C@H](NC(=O)CCCCCCCCCCCCCCCCC(=O)O)C(=O)O)NC(=O)[C@H](CCC(=O)O)NC(=O)[C@H](CC(C)C)NC(=O)[C@H](CC(C)C)NC(=O)[C@@H](NC(=O)[C@H](CO)NC(=O)[C@H](Cc1ccc(O)cc1)NC(=O)[C@H](CC(=O)O)NC(=O)[C@H](CO)NC(=O)[C@@H](NC(=O)[C@H](Cc1ccccc1)NC(=O)[C@@H](NC(=O)CNC(=O)[C@H](CCC(=O)O)NC(=O)C(C)(C)NC(=O)[C@@H](N)Cc1ccc(O)cc1)[C@@H](C)O)[C@@H](C)O)[C@@H](C)CC)C(=O)N[C@@H](CC(N)=O)C(=O)N[C@@H](Cc1c[nH]c2ccccc12)C(=O)N[C@@H](CC(C)C)C(=O)N[C@@H](CC(C)C)C(=O)N[C@@H](C)C(=O)NCC(=O)NCC(=O)N1CCC[C@H]1C(=O)O
Human GLP-1 receptor
  hGLP-1R, CRE Luc 0% HSA EC50 (pM): 8.6 pM
  hGLP-1R, CRE Luc 1% HSA EC50 (pM): 365 pM
Human GIP receptor
  hGIPR, CRE Luc 0% HSA EC50 (pM): 6.5 pM
  hGIPR, CRE Luc 1% HSA EC50 (pM): 275 pM

B2: Compound No. 18 (peptide)
peptide: Y[Aib]EGTFTSDYSILLEK([εLys-εLys-γGlu-C18 diacid])QAAREFINWLLAG-OH
modifications: N-terminus assumed
SMILES: CC[C@H](C)[C@H](NC(=O)[C@H](Cc1ccccc1)NC(=O)[C@H](CCC(=O)O)NC(=O)[C@H](CCCNC(=N)N)NC(=O)[C@H](C)NC(=O)[C@H](C)NC(=O)[C@H](CCC(N)=O)NC(=O)[C@H](CCCCNC(=O)[C@@H](N)CCCCNC(=O)[C@@H](N)CCCCNC(=O)CC[C@H](NC(=O)CCCCCCCCCCCCCCCCC(=O)O)C(=O)O)NC(=O)[C@H](CCC(=O)O)NC(=O)[C@H](CC(C)C)NC(=O)[C@H](CC(C)C)NC(=O)[C@@H](NC(=O)[C@H](CO)NC(=O)[C@H](Cc1ccc(O)cc1)NC(=O)[C@H](CC(=O)O)NC(=O)[C@H](CO)NC(=O)[C@@H](NC(=O)[C@H](Cc1ccccc1)NC(=O)[C@@H](NC(=O)CNC(=O)[C@H](CCC(=O)O)NC(=O)C(C)(C)NC(=O)[C@@H](N)Cc1ccc(O)cc1)[C@@H](C)O)[C@@H](C)O)[C@@H](C)CC)C(=O)N[C@@H](CC(N)=O)C(=O)N[C@@H](Cc1c[nH]c2ccccc12)C(=O)N[C@@H](CC(C)C)C(=O)N[C@@H](CC(C)C)C(=O)N[C@@H](C)C(=O)NCC(=O)O
Human GLP-1 receptor
  hGLP-1R, CRE Luc 0% HSA EC50 (pM): 19.7 pM
  hGLP-1R, CRE Luc 1% HSA EC50 (pM): 226 pM
Human GIP receptor
  hGIPR, CRE Luc 0% HSA EC50 (pM): 20.9 pM
  hGIPR, CRE Luc 1% HSA EC50 (pM): 285 pM

B3: Compound No. 20 (peptide)
peptide: Y[Aib]EGTFTSDYSILLEK([εLys-εLys-γGlu-C18 diacid])QAAREFINWLLAGGPSS-OH
modifications: N-terminus assumed
SMILES: CC[C@H](C)[C@H](NC(=O)[C@H](Cc1ccccc1)NC(=O)[C@H](CCC(=O)O)NC(=O)[C@H](CCCNC(=N)N)NC(=O)[C@H](C)NC(=O)[C@H](C)NC(=O)[C@H](CCC(N)=O)NC(=O)[C@H](CCCCNC(=O)[C@@H](N)CCCCNC(=O)[C@@H](N)CCCCNC(=O)CC[C@H](NC(=O)CCCCCCCCCCCCCCCCC(=O)O)C(=O)O)NC(=O)[C@H](CCC(=O)O)NC(=O)[C@H](CC(C)C)NC(=O)[C@H](CC(C)C)NC(=O)[C@@H](NC(=O)[C@H](CO)NC(=O)[C@H](Cc1ccc(O)cc1)NC(=O)[C@H](CC(=O)O)NC(=O)[C@H](CO)NC(=O)[C@@H](NC(=O)[C@H](Cc1ccccc1)NC(=O)[C@@H](NC(=O)CNC(=O)[C@H](CCC(=O)O)NC(=O)C(C)(C)NC(=O)[C@@H](N)Cc1ccc(O)cc1)[C@@H](C)O)[C@@H](C)O)[C@@H](C)CC)C(=O)N[C@@H](CC(N)=O)C(=O)N[C@@H](Cc1c[nH]c2ccccc12)C(=O)N[C@@H](CC(C)C)C(=O)N[C@@H](CC(C)C)C(=O)N[C@@H](C)C(=O)NCC(=O)NCC(=O)N1CCC[C@H]1C(=O)N[C@@H](CO)C(=O)N[C@@H](CO)C(=O)O
Human GLP-1 receptor
  hGLP-1R, CRE Luc 0% HSA EC50 (pM): 4.2 pM
  hGLP-1R, CRE Luc 1% HSA EC50 (pM): 256 pM
Human GIP receptor
  hGIPR, CRE Luc 0% HSA EC50 (pM): 7.1 pM
  hGIPR, CRE Luc 1% HSA EC50 (pM): 247 pM

B4: Compound No. 21 (peptide)
peptide: Y[Aib]EGTFTSDYSILLEK([εLys-εLys-γGlu-C18 diacid])QAAREFINWLLAGGPSSGA-OH
modifications: N-terminus assumed
SMILES: CC[C@H](C)[C@H](NC(=O)[C@H](Cc1ccccc1)NC(=O)[C@H](CCC(=O)O)NC(=O)[C@H](CCCNC(=N)N)NC(=O)[C@H](C)NC(=O)[C@H](C)NC(=O)[C@H](CCC(N)=O)NC(=O)[C@H](CCCCNC(=O)[C@@H](N)CCCCNC(=O)[C@@H](N)CCCCNC(=O)CC[C@H](NC(=O)CCCCCCCCCCCCCCCCC(=O)O)C(=O)O)NC(=O)[C@H](CCC(=O)O)NC(=O)[C@H](CC(C)C)NC(=O)[C@H](CC(C)C)NC(=O)[C@@H](NC(=O)[C@H](CO)NC(=O)[C@H](Cc1ccc(O)cc1)NC(=O)[C@H](CC(=O)O)NC(=O)[C@H](CO)NC(=O)[C@@H](NC(=O)[C@H](Cc1ccccc1)NC(=O)[C@@H](NC(=O)CNC(=O)[C@H](CCC(=O)O)NC(=O)C(C)(C)NC(=O)[C@@H](N)Cc1ccc(O)cc1)[C@@H](C)O)[C@@H](C)O)[C@@H](C)CC)C(=O)N[C@@H](CC(N)=O)C(=O)N[C@@H](Cc1c[nH]c2ccccc12)C(=O)N[C@@H](CC(C)C)C(=O)N[C@@H](CC(C)C)C(=O)N[C@@H](C)C(=O)NCC(=O)NCC(=O)N1CCC[C@H]1C(=O)N[C@@H](CO)C(=O)N[C@@H](CO)C(=O)NCC(=O)N[C@@H](C)C(=O)O
Human GLP-1 receptor
  hGLP-1R, CRE Luc 0% HSA EC50 (pM): 5.7 pM
  hGLP-1R, CRE Luc 1% HSA EC50 (pM): 118 pM
Human GIP receptor
  hGIPR, CRE Luc 0% HSA EC50 (pM): 5.4 pM
  hGIPR, CRE Luc 1% HSA EC50 (pM): 131 pM

B5: Compound No. 10 (peptide)
peptide: Y[Aib]EGTFTSDYSIYLEK([AEEA-AEEA-γGlu-C18 diacid])QAAREFIEWLLAGGPSSGAPPPS-OH
modifications: N-terminus assumed
SMILES: CC[C@H](C)[C@H](NC(=O)[C@H](Cc1ccccc1)NC(=O)[C@H](CCC(=O)O)NC(=O)[C@H](CCCNC(=N)N)NC(=O)[C@H](C)NC(=O)[C@H](C)NC(=O)[C@H](CCC(N)=O)NC(=O)[C@H](CCCCNC(=O)COCCOCCNC(=O)COCCOCCNC(=O)CC[C@H](NC(=O)CCCCCCCCCCCCCCCCC(=O)O)C(=O)O)NC(=O)[C@H](CCC(=O)O)NC(=O)[C@H](CC(C)C)NC(=O)[C@H](Cc1ccc(O)cc1)NC(=O)[C@@H](NC(=O)[C@H](CO)NC(=O)[C@H](Cc1ccc(O)cc1)NC(=O)[C@H](CC(=O)O)NC(=O)[C@H](CO)NC(=O)[C@@H](NC(=O)[C@H](Cc1ccccc1)NC(=O)[C@@H](NC(=O)CNC(=O)[C@H](CCC(=O)O)NC(=O)C(C)(C)NC(=O)[C@@H](N)Cc1ccc(O)cc1)[C@@H](C)O)[C@@H](C)O)[C@@H](C)CC)C(=O)N[C@@H](CCC(=O)O)C(=O)N[C@@H](Cc1c[nH]c2ccccc12)C(=O)N[C@@H](CC(C)C)C(=O)N[C@@H](CC(C)C)C(=O)N[C@@H](C)C(=O)NCC(=O)NCC(=O)N1CCC[C@H]1C(=O)N[C@@H](CO)C(=O)N[C@@H](CO)C(=O)NCC(=O)N[C@@H](C)C(=O)N1CCC[C@H]1C(=O)N1CCC[C@H]1C(=O)N1CCC[C@H]1C(=O)N[C@@H](CO)C(=O)O
Human GIP receptor
  hGIPR, CRE Luc 0% HSA EC50 (pM): 11.3 pM
